# Reference: paper PMC10746158 (mBio, 2023)
# Target: the molecule itself
# Experiment: SEC; HiLoad 16/60 Superdex 200 pg; 150 mM NaCl, 50 mM Tris, 10 mM MgCl2, pH 8.0; monodisperse peak at ~60 kDa against 30.5 kDa for the monomer
protein,measurement,value
"Sulfolobus acidocaldarius GPN-loop GTPase SaGPN (Saci_1281) (enzyme, SaGPN (Saci_1281), the solitary GPN-loop GTPase of Sulfolobus acidocaldarius, Uniprot Q4J9A7; residues Y2-A240 were built in both structures, 14 amino acids at the C-terminus are disordered; printed mass 30.5 kDa; Crystallised with GppNHp or GDP and Mg2+; source: E. coli BL21(DE3) Rosetta, purified (heat treatment, Ni-NTA, SEC); not shown: His10, N-terminal, kept) YFIFVLGTAGSGKTTLVKALQDYLLNNELDTAIINLDPAVEVLPYKPDIDAREYVDVYDVMNKYELGPNSSLVISVDLLLTKAKELKEDLNQLQANYVLVDTPGQIELFAYRDTGKILSSFISEGSKSVSVFLFDSYLSKDPKSFLSLFLLSSSIKFRIDMPQISVLSKVDLLSSSELERMRSWIEDGSIIDELGSIDEYSFELVKTIVENLESFPIPVSSTNFSGLDQLYAEVQKVLAGGEDFETEEPNPRL",stoichiometry N,2
